Measurements as given in PMC6761861 (Chemical Science, 2019).
Read-outs that look alike come from different tables or passages of the source. No end group written: not given here.

Legend:
[1] = tested on: NF-κB activity (LMP-1) in EBV positive B721 cells; conditions: read-out: IC50, inhibition of B721 cell NF-κB activity; cited from earlier work
[2] = molecular target: TMD5 (coumarin-labelled) (Epstein-Barr virus, UniProt P03230); assay: FRET assay; assay type: binding
[3] = tested on: TMD5/TMD5 interaction (TMD5–ToxR); assay: Dominant-negative ToxR assay in bacterial membranes; assay type: cell-based, Epstein–Barr virus; conditions: co-expressed as ToxR* fusion with TMD5–ToxR in E. coli FHK12; result in words
[4] = molecular target: coumarin-labelled LMP-1 transmembrane domain 5 (TMD5) peptide (Epstein-Barr virus); assay: other fluorescence titration
[5] = molecular target: coumarin-labelled LMP-1 transmembrane domain 5 (TMD5) peptide (Epstein-Barr virus); assay: FRET or BRET
[6] = molecular target: coumarin-labelled LMP-1 transmembrane domain 5 (TMD5) peptide (Epstein-Barr virus); assay: FRET or BRET; remark: listed apart in the source

N=C(N)c1ccc(C=Cc2ccc(C(=N)N)cc2O)cc1 [NSC259242]
IC50 [1]: 29.6 ± 6.6 µM

KKKK-VFLWLWLIWIFIDWKLWLLYWLL-KKKK [anti-TMD5 scramble]
quenching of TMD5-coumarin fluorescence and FRET signal compared to anti-TMD5 ([2]; 1.0 mM C14 betaine micelles, 20 mM HEPES, pH 7.4, result in words): much less quenching of TMD5-coumarin fluorescence and weaker FRET signal from FITC emission
effect on TMD5 Miller unit [3]: did not inhibit the TMD5 Miller unit

KKKKWWKLWYFLVWFLDLIILILLLWWKKKK [anti-TMD5]
Kd [2]: 0.04 ± 0.0067 µM

WWKLWYFLVWFLDLIILILLLWW (designed binder) [anti-TMD5 peptide (unlabelled)]
EC50 [4]: 3.3 µM

WWKLWYFLVWFLDLIILILLLWW (designed binder, also: FITC label, position not given here) [FITC-tagged anti-TMD5 peptide]
Kd [5]: 40 µM
stoichiometry N [5]: 0.44
Kd [6]: 0.0678 µM
stoichiometry N [6]: 0.53
